Measurements reported in publication PMC6238592.

Target: human FACT (FAcilitates Chromatin Transcription), full length (human) (UniProt Q9Y5B9)
Test: AUC; SV-AUC, absorbance optics; 1.8 μM FACT incubated with histones at the indicated molar ratios for 10 min at room temperature; 150 mM NaCl, 20 mM Tris pH 8.0, 1 mM TCEP; 20°C

- stoichiometry N (H2A–H2B per FACT): 1
Substance: histone H2A–H2B dimer (no label stated) (from UniProt P06897 1-130; P02281 1-126) (complex)
